From patent publication US20140212888A1

Molecular target: WT1 (mutant) peptide presented by HLA-A*24:02 on HLA-A*24:02 positive LCL (human)
Assay: cell-based or functional assay

B1: 37F8-derived TCR, WT1 TCR A12-3/B5-1 (TCR α-chain TRAV12-3/TRAJ52/TRAC, TCR β-chain TRBV5-1/TRBD2/TRBJ2-5/TRBC2) (TCR)
TCR alpha: WVWSQQKEVEQDPGPLSVPEGAIVSLNCTYSNSAFQYFMWYRQYSRKGPELLMYTYSSGNKEDGRFTAQVDKSSKYISLFIRDSQPSDSATYLCATSNAGGTSYGKLTFGQGTILTVHPNIQNPDPAVYQLRDSKSSDKSVCLFTDFDSQTNVSQSKDSDVYITDKTVLDMRSMDFKSNSAVAWSNKSDFACANAFNNSIIPEDTFFPSPESSCDVKLVEKSFETDTNLNFQNLSVIGFR
TCR beta: GPVKAGVTQTPRYLIKTRGQQVTLSCSPISGHRSVSWYQQTPGQGLQFLFEYFSETQRNKGNFPGRFSGRQFSNSRSEMNVSTLELGDSALYLCASSYGERERKGETQYFGPGTRLLVLEDLKNVFPPEVAVFEPSEAEISHTQKATLVCLATGFYPDHVELSWWVNGKEVHSGVSTDPQPLKEQPALNDSRYCLSSRLRVSATFWQNPRNHFRCQVQFYGLSENDEWTQDRAKPVTQIVSAEAWGRADCGFTSESYQQGVLSATILYE
Work on B1 yielded a cytotoxic activity (%) of 73%.
